How the values were obtained:
[1] = target: T1, soluble CAR extracellular domain (ECD) containing scFv and CD8α hinge (UniProt P01732 138-182, biotinylated); assay: BLI (OctetRed384), GC5W48-Btn loaded on streptavidin tip; row 'average'; the sheet puts this number under 'kdis (1/s)', Table 14 of the text under 'KD (M)'
T1 construct: domain: CD8α hinge; also called soluble CAR ECD; CAR ECD
Description: (§1) To determine the binding affinity and kinetics of mAbs to CD8α hinge, soluble CAR extracellular domains (ECD) containing scFv and CD8α hinge was generated for Bio-layer interferometry (BLI) analysis using OctetRed384 (Sartorius). The CAR ECD was biotinylated and loaded to streptavidin sensor tip. Then mAbs were associated to the sensor and followed by disassociation in the assay buffer. Data was analyzed by Octet software (Sartorius).

[2] = target: T2, human CD8α on primary CD8+ T cells (human, UniProt P01732 22-235); assay: flow cytometry on PBMC, 2 µg/mL mAb, positive cells among EM CD8 T cells, Donor 2
T2 construct: Endogenous CD8 on T cells from PBMC; also called CD8+ primary T cells; human primary CD8+ cells
T2 sequence (P01732 22-235): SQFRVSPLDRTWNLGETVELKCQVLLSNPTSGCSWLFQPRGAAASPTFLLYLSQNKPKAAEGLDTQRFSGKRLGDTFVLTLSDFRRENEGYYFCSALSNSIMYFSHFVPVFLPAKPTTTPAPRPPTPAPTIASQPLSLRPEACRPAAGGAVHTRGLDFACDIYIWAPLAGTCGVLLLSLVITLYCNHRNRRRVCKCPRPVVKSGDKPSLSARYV
Description: (§2) Frozen PBMCs were thawed and resuspended in FACS buffer (PBS+2% FBS). Cells were then incubated with Fc block for 15 min at 4 C prior to incubation with 2 μg/mL of each CD8α hinge binders at room temperature for 45 min. […] After staining, cells were washed with FACS buffer twice and resuspended in 100 μl PBS containing DAPI for acquisition. Cells were first gated on FSC/SSC, followed by live cell gating (DAPI negative cells) followed by singlet gating. CD3 T cells were identified using FSC versus CD3 dot plot. Within the CD3 T cells, CD4 and CD8 T cells were gated. Naïve, Effector, EM and CM cells were identified within the CD8 T cells using CD45RA and CD27 dot plot. Within each of the cell types, the secondary only control was used to set the gates to identify the positive stained population. The percentage of positive cells in CD8+ T cell population with binding to CD8α hinge binders were quantified and summarized in Table 13.

[3] = target: T1, soluble CAR extracellular domain (ECD) …; assay: BLI (OctetRed384), GC5W48-Btn (biotinylated CAR ECD) loaded on streptavidin tip, mAb in solution; first of two table rows
Description: as §1

[4] = target: T2, human CD8α on primary CD8+ T cells; assay: flow cytometry on PBMC, 2 µg/mL mAb, positive cells among EMRA CD8 T cells, Donor 2
Description: as §2

[5] = target: T2, human CD8α on primary CD8+ T cells; assay: flow cytometry on PBMC, 2 µg/mL mAb, positive cells among EM CD8 T cells, Donor 1
Description: as §2

[6] = target: T1, soluble CAR extracellular domain (ECD) …; assay: BLI (OctetRed384), biotinylated CAR ECD on streptavidin tips; the cell stands under the head 'kd (1/s)' (heads shifted)
Description: as §1

[7] = target: T3, CAR with CD8α hinge as the spacer, expressed on Jurkat CAR-T cells; assay: flow cytometry (iQue) on Jurkat CAR-T cells, A647 anti-human IgG Fc detection
T3 construct: domain: CD8α hinge; also called CD8α hinge expressed on the Jurkat CAR-T cells
T3 sequence (P01732 138-182): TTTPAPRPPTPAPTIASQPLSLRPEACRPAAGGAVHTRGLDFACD
Description: mAbs were 1:3 serially diluted ranging from 100 nM to 1.7 pM and were incubated with cell mixture containing Jurkat CAR-T cells (unstained), Jurkat cells (CTV dye stained) and Sup-T1 cells (CSFE dye stained) in assay media (RPMI 1640+10% HI FBS+Pen/strep) for 1 hr at 37° C. […] Cells were then washed and analyzed by iQue screener (Intellicyt®). ForeCyt software was used for data analysis. The ratio of geomean of AF647 fluorescent signal from sample over the isotype control antibody (Signal) was used for the dose-dependent plot (FIGS. 2A-2F).

[8] = target: T2, human CD8α on primary CD8+ T cells; assay: flow cytometry on PBMC, 2 µg/mL mAb, positive cells among CD8+ T cells, Donor 2
Description: as §2

[9] = target: T1, soluble CAR extracellular domain (ECD) …; assay: BLI (OctetRed384), biotinylated CAR ECD on streptavidin tips; the cell stands under the head 'KD (M)' (heads shifted)
Description: as §1

[10] = target: T1, soluble CAR extracellular domain (ECD) …; assay: BLI (OctetRed384), GC5W48-Btn (biotinylated CAR ECD) loaded on streptavidin tip, mAb in solution; second of two table rows
Description: as §1

[11] = target: T1, soluble CAR extracellular domain (ECD) …; assay: BLI (OctetRed384), GC5W48-Btn (biotinylated CAR ECD) loaded on streptavidin tip, mAb in solution; second of two table rows; column head 'kdis (1/s)'
Description: as §1

[12] = target: T1, soluble CAR extracellular domain (ECD) …; assay: BLI (OctetRed384), biotinylated CAR ECD on streptavidin tips; the cell stands under the head 'ka (1/Ms)' but the text gives 5.58 nM as the affinity (heads shifted)
Description: as §1

[13] = target: T1, soluble CAR extracellular domain (ECD) …; assay: BLI (OctetRed384), GC5W48-Btn loaded on streptavidin tip; row 'average'; the sheet puts this number under 'kon (1/Ms)', Table 14 of the text under 'kd (1/s)'
Description: as §1

[14] = target: T2, human CD8α on primary CD8+ T cells; assay: flow cytometry on PBMC, 2 µg/mL mAb, positive cells among CD8+ T cells, Donor 1
Description: as §2

[15] = target: T1, soluble CAR extracellular domain (ECD) …; assay: BLI (OctetRed384), GC5W48-Btn (biotinylated CAR ECD) loaded on streptavidin tip, mAb in solution; first of two table rows; column head 'kdis (1/s)'
Description: as §1

[16] = target: T2, human CD8α on primary CD8+ T cells; assay: flow cytometry on PBMC, 2 µg/mL mAb, positive cells among EMRA CD8 T cells, Donor 1
Description: as §2

T1 sequence (P01732 138-182): as above

B1: CD8B612 (antibody, human IgG1, kappa)
heavy: not shown
light: DIVMTQTPLSLPVSLGDQASISCRSSQNIVHSNGNTYLEWYLQKPGQSPKLLIYRVSKRFSGVPDRFSGSGSGTDFTLKITRVEAEDLGVYYCFQGSHVPWTFGGGTKLEIKRTVAAPSVFIFPPSDEQLKSGTASVVCLLNNFYPREAKVQWKVDNALQSGNSQESVTEQDSKDSTYSLSSTLTLSKADYEKHKVYACEVTHQGLSSPVTKSFNRGEC
notes: Mouse variable regions on human IgG1 / human kappa constant regions
koff [1]: 0.00135 s⁻¹
Binding+ in EM (%) [2]: 72.8%
Kd [3]: 4.81 nM
kon [3]: 237000 M⁻¹ s⁻¹
Binding+ in EMRA (%) [4]: 7.67%
Binding+ in EM (%) [5]: 65.1%
kon [6]: 241000 M⁻¹ s⁻¹
EC50 [7]: 2.9 nM
Binding in CD8+ cells (%) [8]: 32.9%
koff [9]: 0.00135 s⁻¹
Kd [10]: 6.35 nM
kon [10]: 245000 M⁻¹ s⁻¹
koff [11]: 0.00156 s⁻¹
Kd [12]: 5.58 nM
kon [13]: 241000 M⁻¹ s⁻¹
Binding in CD8+ cells (%) [14]: 71.6%
koff [15]: 0.00114 s⁻¹
Binding+ in EMRA (%) [16]: 67.6%

Reference: patent US20230174651A1 (Janssen / Centocor, published 2023)
